Reference: patent publication US20250277196A1, “EPSPS MUTANTS AND METHOD OF ITS USES” (CROPEDIT BIOTECHNOLOGY INC., priority 2021, published 2025)
Positions count from the first letter of the chain named. Names and notes keep the numbering of the source. Values joined by “and” are separate entries in the source; they are usually repeats but may differ in a detail not shown here. Equal entries are not always repeated.

B1: OsTIPS: mutated rice EPSPS with mutation T173I and P177S (SEQ ID NO:35); same mutation type as glyphosate-resistant corn GA21 (protein)
chain: MAAKAEEIVLQPIREISGAVQLPGSKSLSNRILLLSALSEGTTVVDNLLNSEDVHYMLEALKALGLSVEADKVAKRAVVVGCGGKFPVEKDAKEEVQLFLGNAGIAMRSLTAAVTAAGGNATYVLDGVPRMRERPIGDLVVGLKQLGADVDCFLGTECPPVRVKGIGGLPGGKVKLSGSISSQYLSALLMAAPLALGDVEIEIIDKLISIPYVEMTLRLMERFGVKAEHSDSWDRFYIKGGQKYKSPGNAYVEGDASSASYFLAGAAITGGTVTVQGCGTTSLQGDVKFAEVLEMMGAKVTWTDTSVTVTGPPREPYGKKHLKAVDVNMNKMPDVAMTLAVVALFADGPTAIRDVASWRVKETERMVAIRTELTKLGASVEEGPDYCIITPPEKLNITAIDTYDDHRMAMAFSLAACADVPVTIRDPGCTRKTFPNYFDVLSTFVRN
modifications: This sequence is synthesized in lab.
notes: same mutation type as glyphosate-resistant corn GA21
B2: 3-33: rice EPSPS with G172A, P177S, V208A, L264H, V403A and R514K mutations (protein)
chain: B1 chain with G104A, I105T, V140A, L196H, V335A, R446K
modifications: This sequence is synthesized in lab.
notes: rice EPSPS with G172A, P177S, V208A, L264H, V403A and R514K mutations
B3: 3-36: rice EPSPS with V113M, G172A, P177S and V403A mutations (protein)
chain: B1 chain with V45M, G104A, I105T, V335A
modifications: This sequence is synthesized in lab.
notes: rice EPSPS with V113M, G172A, P177S and V403A mutations
B4: 1-68: rice EPSPS with A70V, G172A, P177S, V403A and R514S mutations (protein)
chain: B1 chain with A2V, G104A, I105T, V335A, R446S
modifications: This sequence is synthesized in lab.
notes: rice EPSPS with A70V, G172A, P177S, V403A and R514S mutations
B5: 1-98: rice EPSPS with A73T, G172A, P177S and V403A mutations (protein)
chain: B1 chain with A5T, G104A, I105T, V335A
modifications: This sequence is synthesized in lab.
notes: rice EPSPS with A73T, G172A, P177S and V403A mutations
B6: 1-139: rice EPSPS with A73T, E86G, G172A, P177S and V403A mutations (protein)
chain: B1 chain with A5T, E89G, G104A, I105T, V335A
modifications: This sequence is synthesized in lab.
notes: rice EPSPS with A73T, E86G, G172A, P177S and V403A mutations
B7: 1-246: rice EPSPS with A145G, G172A, P177S, V403A, T442S and D472E mutations (protein)
chain: B1 chain with A77G, G104A, I105T, V335A, T374S, D404E
modifications: This sequence is synthesized in lab.
notes: rice EPSPS with A145G, G172A, P177S, V403A, T442S and D472E mutations
B8: 1-386: rice EPSPS with G172A, P177S, V403A and F502V mutations (protein)
chain: B1 chain with G104A, I105T, V335A, F434V
modifications: This sequence is synthesized in lab.
notes: rice EPSPS with G172A, P177S, V403A and F502V mutations
B9: 1-411: rice EPSPS with G172A, P177S, Y252F and V403A mutations (protein)
chain: B1 chain with G104A, I105T, Y184F, V335A
modifications: This sequence is synthesized in lab.
notes: rice EPSPS with G172A, P177S, Y252F and V403A mutations
B10: 1-547: rice EPSPS with E137D, G172A, P177S, L253M and V403A mutations (protein)
chain: B1 chain with E69D, G104A, I105T, L185M, V335A
modifications: This sequence is synthesized in lab.
notes: rice EPSPS with E137D, G172A, P177S, L253M and V403A mutations
B11: OsGAPS (protein)
chain: B1 chain with G104A, I105T
modifications: This sequence is synthesized in lab.
B12: OsGA (protein)
chain: B1 chain with G104A, I105T, S109P
modifications: This sequence is synthesized in lab.
B13: OsPS (protein)
chain: B1 chain with I105T
modifications: This sequence is synthesized in lab.
B14: OsWt: wild type rice EPSPS (SEQ ID NO:2), chloroplast transit peptide removed (protein)
chain: B1 chain with I105T, S109P
modifications: This sequence is synthesized in lab.
B15: OsGAVA (protein)
chain: B1 chain with G104A, I105T, S109P, V335A
modifications: This sequence is synthesized in lab.
B16: OsPSVA (protein)
chain: B1 chain with A103G, G104A, I105T, V335A
modifications: This sequence is synthesized in lab.
B17: OsTIPTVA (protein)
chain: B1 chain with S109T, V335A
modifications: This sequence is synthesized in lab.

System: Escherichia coli DH5α with EPSPS gene knocked out
Experiment: Resistance test of rice EPSPS mutants from error-prone PCR on OsGPV: colony growth on medium with 0, 100 mM and 125 mM glyphosate (FIG. 7)
Assay type: cell-based
Conditions: 100 mM glyphosate
Text: In order to further improve the glyphosate resistance and develop highly resistant rice EPSPS mutants that can meet commercial production requirements, we used OsGPV as a template to perform random mutations, with high-concentration glyphosate screening, and to identify EPSPS mutant that can improve the glyphosate resistance.
We used OsGPV(SEQ ID NO:6) as a template to perform error-prone PCR. (With GeneMorph II Random Mutagenesis Kit, #200550, Agilent Technologies).
a) The recovered product was digested with EcoRI and SbfI, and then ligated to the pKED2 vector after the same double digestion with T4 DNA ligase to obtain the ligation product to obtain the vector carrying the rice EPSPS gene mutant.
b) Transformed the above vector into Escherichia coli DH5α with EPSPS gene knocked out. The transformation steps were as follows: add the above ligation product to 50 μl E. coli DH5α competent cells with EPSPS gene knocked out, mix well and incubate on ice for 30 min, then after a heat shock at 42° C. for 90 s, immediately place it in an ice bath on ice for 2 min after taking it out. After the ice bath, add 500 μl of LB liquid medium and resuscitate at 37° C. at 180 r/min for 45 min. The transformed Escherichia coli was a mutant library expressing rice EPSPS mutant genes obtained on the template basis of OsGPV.
5) Centrifuged the transformed product obtained above at 3000 rpm for 5 min, discarded the supernatant, then resuspended it in 1 ml M9 liquid medium, added 200 μl M9 liquid medium to resuspend and inoculated it on an M9 plate containing 75 mM glyphosate. Incubated at 37 degrees for 24 hours.
Pick and saved the single colonies grown in the above screening plates, and conduct further resistance identification and sequencing
ii. Resistance test of rice mutants. In this example, the wild-type rice EPSPS gene OsWT, the most widely used commercial glyphosate-resistant gene CP4EPSPS, the rice mutantOsTIPS, which had the same mutation type with commercial glyphosate-resistant corn GA21, and the rice mutant OsGPV with the highly glyphosate-resistant rice EPSPS mutant gene obtained in this study were transformed as control, and the newly obtained rice EPSPS mutants were transformed as the experimental group, and the glyphosate resistance among the control and the mutants were compared. The monoclonal bacteria of the control group and the experimental group were respectively inoculated into a medium containing 0, 100 mM and 125 mM glyphosate, and the growth of colonies in each group was observed.

Molecule | colony growth under 100 mM glyphosate
B1 | did not grow

Same assay, conditions: 125 mM glyphosate pressure, FIG. 7

Molecule | colony growth status compared with OsGPV
B2 | significantly higher than OsGPV
B3 | significantly higher than OsGPV
B4 | significantly higher than OsGPV
B5 | significantly higher than OsGPV
B6 | significantly higher than OsGPV
B7 | significantly higher than OsGPV
B8 | significantly higher than OsGPV
B9 | significantly higher than OsGPV
B10 | significantly higher than OsGPV

System: E. coli lacking EPSPS
Experiment: Glyphosate resistance comparison among rice EPSPS mutants: growth of transformed E. coli on M9 medium with different glyphosate concentrations
Assay type: cell-based, Escherichia coli
Conditions: M9 medium, 0 mM glyphosate; complementation of E. coli EPSPS function
Description: a) PCR system: According to the primer and template mixed PCR system corresponding to the target vector in the above table, the forward primer was 1.25 μl, the reverse primer was 1.25 μl, the template plasmid was 2 μl, the Q5 PCR master mix was 12.5 μl, and ddH2O was […].
b) PCR reaction conditions were as following: the annealing temperature was set according to the annealing temperature corresponding to the target carrier in the above table.
c) Took out 5 μl of the obtained PCR product and added it to the loading buffer for agarose gel electrophoresis. A band with a size of about 4.5 kb was considered successful.
d) Used NEB's KLD enzyme mixture to remove the template and connected the PCR product. The connection system was 5 μl KLD buffer, 1 μl KLD MIX, 1 μl PCR product, and ddH2O 3 μl. After ligating at room temperature for 5 min, transformed it into E. coli.
e) The ligation product was transformed into Dh5a competent E. coli lacking EPSPS. After resuscitation, the cells were washed twice with M9 medium, and then the washed cells were spread on M9 medium and cultured for 48 h. Sequenced the grown single colony (Tsingke Biological Technology Co., Ltd.), and selected the correct mutant to save for future use.
OsWt represents the wild type rice EPSPS(SEQ ID NO:2). […] OsGA represents the mutated rice EPSPS with mutation G172A. (SEQ ID NO:7) OsPS represents the mutated rice EPSPS with mutation P177S. (SEQ ID NO:8) OsGAPS represents the mutated rice EPSPS with mutation G172A and P177S. (SEQ ID NO:9) OsGAVA represents the mutated rice EPSPS with mutation G172A and V403A(SEQ ID NO:4). OsPSVA represents the mutated rice EPSPS with mutation P177S and V403A(SEQ ID NO:5). OsGPV represents the mutated rice EPSPS with mutation G172A, P177S and V403A(SEQ ID NO:6). OsTIPS represents the mutated rice EPSPS with mutation T173I and P177S. (SEQ ID NO: 35). OsTIPT represents the mutated rice EPSPS with mutation T173I and P177T. (SEQ ID NO:36). OsTIPSVA represents the mutated rice EPSPS with mutation T173I, P177S and V403A. (SEQ ID NO:37). OsTIPTVA represents the mutated rice EPSPS with mutation T173I, P177T and V403A. (SEQ ID NO:38). CP4 represents the wild type EPSPS from Agrobacterium tumefaciens. (SEQ ID NO:39)
Each product obtained from the above steps were transformed into E. coli lacking EPSPS. By detecting the growth of the transformed Escherichia coli on M9 medium containing different glyphosate concentrations (0 mM, 0.5 mM, 2 mM, 4 mM, 5 mM, 25 mM, 75 mM, 100 mM), the 1 mM glyphosate here was equivalent to […] glyphosate acid, the glyphosate resistance of rice EPSPS mutants was verified.

Molecule | growth on medium containing 0 mM glyphosate
B11 | cannot grow

Same assay, conditions: M9 medium, 0.5 mM glyphosate

Molecule | growth on 0.5 mM glyphosate medium
B12 | can grow
B13 | can grow
B14 | cannot grow

Same assay, conditions: M9 medium; tested 0, 0.5, 2, 4, 5, 25, 75, 100 mM glyphosate; FIG. 2, FIG. 3

Molecule | glyphosate concentration of the medium on which the strain can grow
B15 | ≤ 75 mM
B16 | ≤ 4 mM
B17 | 100 mM and 75 mM
